The results in this text go back to the supplement of paper PMC10567573.

The chains are these.
B1: SLC25A39 (parent)
chain: LTSDLYAPMVAGALARLGTVTVIS
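Further: lentivirally expressed fusions sorted by FACS into six bins by GFP to DsRed ratio, PSI derived from sequencing read proportions per bin multiplied by bin number.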

In the data set the parent is B1. Put plainly: protein stability index of a GFP-peptide fusion (GPS, HEK-293T) (PSI 1-6); higher = more stable. The note with it: c terminus: a fixed tail appended.
In the case of LTSDLYAPMVAGALLRLGTVTVIS, the protein stability index was determined as 1.45.
The same measure for LTSDLYAPMVAGALNRLGTVTVIS: 1.87; for LTSDLYAPMVAGALDRLGTVTVIS: 1.93; for LTSDLYAPMVAGALQRLGTVTVIS: 3.66.
Next, LTSDLYAPMVAGALSRLGTVTVIS: 3.49; LTSDLYAPMVAGALPRLGTVTVIS: 1.97.
The same measure for LTSDLYAPMVAGALFRLGTVTVIS: 2.6; for LTSDLYAPMVAGALMRLGTVTVIS: 4.42; for LTSDLYANMVAGALARLGTVTVIS: 1.7.
LTSDLYAWMVAGALARLGTVTVIS: the protein stability index is 2.68.
With LTSDLYAAMVAGALARLGTVTVIS, the protein stability index turned out to be 1.5.
Next, LTSDLYACMVAGALARLGTVTVIS: 2.52; LTSDLYAIMVAGALARLGTVTVIS: 1.62.
On to LTSDLYATMVAGALARLGTVTVIS, for which the protein stability index was found to be 3.06.
The same measure for LTSDLYADMVAGALARLGTVTVIS: 3.54.
Next, LTSDLYASMVAGALARLGTVTVIS: 3.97.
The same measure for LTSDLYAMMVAGALARLGTVTVIS: 3.46; for LTSDLYAEMVAGALARLGTVTVIS: 3.86.
As to LTSDLYALMVAGALARLGTVTVIS, the protein stability index came out at 2.02.
The same measure for LTSDLYAPMVAGSLARLGTVTVIS: 1.38; for LTSDLYAPMVAGKLARLGTVTVIS: 3.56; for LTSDLYAPMVAGQLARLGTVTVIS: 2.61.
Next, LTSDLYAPMVAGNLARLGTVTVIS: 2.09; LTSDLYAPMVAGMLARLGTVTVIS: 3.17; LTSDLYAPMVAGTLARLGTVTVIS: 1.75.
Next, LTSDLYAPMVAGPLARLGTVTVIS: 1.16.
LTSDLYAPMVAGVLARLGTVTVIS: the protein stability index is 2.79.
The same measure for LTSDLYAPMVAGRLARLGTVTVIS: 1.79; for LTSDLYAPMVAGCLARLGTVTVIS: 2.73; for LTSDLYAPMVAGDLARLGTVTVIS: 1.74.
Next, LTSDLYAPMVAGHLARLGTVTVIS: 2.47.
Next, LTSDLYAPMVAGALARHGTVTVIS: 2.7; LTSDLYAPMVAGALARFGTVTVIS: 2.95; LTSDLYAPMVAGALARCGTVTVIS: 1.56.
For LTSDLYAPMVAGALARGGTVTVIS, the protein stability index was 3.15.
In the case of LTSDLYAPMVAGALAREGTVTVIS, the protein stability index was 2.71.
With LTSDLYAPMVAGALARYGTVTVIS, the protein stability index came out at 2.12.
The same measure for LTSDLYAPMVAGALARDGTVTVIS: 2.47; for LTSDLYAPMVAGALARRGTVTVIS: 1.1; for LTSDLYAPMVAGALARKGTVTVIS: 1.75.
The same measure for LTSDLYAPMVAGALARTGTVTVIS: 1.52; for LTSDLYAPMVAGALARSGTVTVIS: 2.51; for LTSDLYAPMVAGALARPGTVTVIS: 1.69.
Next, LTSDLYAPMVAGALARAGTVTVIS: 1.92; LTSDLYAPMVAGALARNGTVTVIS: 1.96.
As to LTSDLYAPMVAGALARWGTVTVIS, the protein stability index was 4.43.
Next, LTSDLYAPMVAGALARVGTVTVIS: 2.22.
Next, LTSDLYAPMVAGALARIGTVTVIS: 3.23; LTSDLYAPEVAGALARLGTVTVIS: 2.54.
As to LTSDLYAPAVAGALARLGTVTVIS, the protein stability index turned out to be 2.21.
Next, LTSDLYAPLVAGALARLGTVTVIS: 3.65; LTSDLYAPTVAGALARLGTVTVIS: 2.35; LTSDLYAPNVAGALARLGTVTVIS: 1.01.
Next, LTSDLYAPIVAGALARLGTVTVIS: 2.76; LTSDLYAPYVAGALARLGTVTVIS: 3.86; LTSDLYAPGVAGALARLGTVTVIS: 1.6.
Next, LTSDLYAPDVAGALARLGTVTVIS: 1.78; LTSDLYAPPVAGALARLGTVTVIS: 1.5.
On to LTSDLYAPCVAGALARLGTVTVIS, for which the protein stability index stood at 1.65.
Consider LTSDLYAPKVAGALARLGTVTVIS, for which the protein stability index came to 1.52.
On to LTSDLYAPRVAGALARLGTVTVIS, for which the protein stability index was 1.36.
The same measure for LTSDLYAPQVAGALARLGTVTVIS: 2.57; for LTSDLYAPHVAGALARLGTVTVIS: 1.77.
Consider LTSDLYAPSVAGALARLGTVTVIS, for which the protein stability index stood at 1.75.
The same measure for LTSDLYAPMVAGAEARLGTVTVIS: 1.91; for LTSDLYAPMVAGANARLGTVTVIS: 1.69.
Next, LTSDLYAPMVAGARARLGTVTVIS: 1.72; LTSDLYAPMVAGAWARLGTVTVIS: 5.23; LTSDLYAPMVAGAKARLGTVTVIS: 1.
Next, LTSDLYAPMVAGAYARLGTVTVIS: 3.67; LTSDLYAPMVAGAGARLGTVTVIS: 2.76; LTSDLYAPMVAGAFARLGTVTVIS: 3.32.
On to LTSDLYAPMVAGAHARLGTVTVIS, for which the protein stability index was found to be 1.12.
The same measure for LTSDLYAPMVAGASARLGTVTVIS: 1.69; for LTSDLYAPMVAGAPARLGTVTVIS: 2.24; for LTSDLYAPMVAGADARLGTVTVIS: 1.83.
Next, LTSDLYAPMVAGACARLGTVTVIS: 3.43.
As to LTSDLYAPMVAGAVARLGTVTVIS, the protein stability index was determined as 2.83.
Turning to LTSDLYAPMVAGAQARLGTVTVIS, the protein stability index was determined as 1.53.
Regarding LTSDLYAPMVAGATARLGTVTVIS, the protein stability index stood at 1.58.
The same measure for LTSDLYAPMVAGAAARLGTVTVIS: 1.79; for LTSDLWAPMVAGALARLGTVTVIS: 3.76.
The same measure for LTSDLVAPMVAGALARLGTVTVIS: 2.13.
Next, LTSDLYAPMVNGALARLGTVTVIS: 2.3; LTSDLYAPMVLGALARLGTVTVIS: 2.5; LTSDLYAPMVYGALARLGTVTVIS: 4.45.
As to LTSDLYAPMVFGALARLGTVTVIS, the protein stability index came to 3.02.
Next, LTSDLYAPMVTGALARLGTVTVIS: 2.81.
Next, LTSDLYAPMVPGALARLGTVTVIS: 3.19; LTSDLYAPMVHGALARLGTVTVIS: 2.69; LTSDLYAPMVDGALARLGTVTVIS: 1.65.
Next, LTSDLYAPMVMGALARLGTVTVIS: 2.95.
LTSDLYAPMVQGALARLGTVTVIS: the protein stability index came to 1.65.
As for LTSDLYAPMVKGALARLGTVTVIS, the protein stability index was 2.39.
